# Results: US20260242478A1 (published 2026)
# Where no end group is shown, it is not given here.
# B1: Phage-2204 (peptide)
# peptide: DLKLCKPEWMCNGM
# notes: Clonal phage of the peptide-180 library, tested as crude phage supernatant; not shown: fused to pIII of the bacteriophage
# B2: Phage-2251 peptide (SEQ ID NO: 2567) (peptide)
# peptide: GTNWCTPAWMCAGF
# modifications: cysteine pairing not given here; also: displayed on bacteriophage as fusion to pIII
# B3: Phage-2202 (peptide)
# peptide: HDKWCIPEWMCISL
# notes: as for B1
# B4: Phage-2201 (peptide)
# peptide: EYNWCTPRWMCKGF
# notes: as for B1
# B5: Phage-2199 (peptide)
# peptide: VEKWCIPSWMCQEL
# notes: as for B1
# B6: Phage-2200 (peptide)
# peptide: GEIWCIPAWMCNTG
# notes: as for B1
# B7: Phage-2193 (peptide)
# peptide: ESHLCIPAWMCDVQ
# notes: as for B1
# B8: Phage-2195 (peptide)
# peptide: LYKWCMPAWMCEQK
# notes: as for B1
# B9: Phage-2203 (peptide)
# peptide: MERWCIPEWMCERT
# notes: as for B1
# B10: Phage-2198 (peptide)
# peptide: DVNWCTPPWMCWGF
# notes: as for B1
# B11: Phage-2363 (peptide)
# peptide: AERWCIPDWMCNVI
# notes: Peptide-180 library clone, tested as clonal phage supernatant
# B12: Phage-2364 (peptide)
# peptide: GANLCIPPWMCLSS
# notes: as for B11
# B13: Phage-2197 (peptide)
# peptide: LEKWCIPSWMCDGM
# notes: as for B1
# B14: Phage-2367 (peptide)
# peptide: YEKWCIPAWMCHVA
# notes: as for B11
# B15: Phage-2360 (peptide)
# peptide: EEKWCRPAWMCEHA
# notes: as for B11
# B16: Phage-2192 (peptide)
# peptide: MTPWCKPAWMCQGI
# notes: as for B1
# B17: Phage-2359 (peptide)
# peptide: AANWCTPPWMCLGF
# notes: as for B11
# B18: Phage-2245 peptide (SEQ ID NO: 2561) (peptide)
# peptide: SEKLCIPEWMCAQA
# modifications: cysteine pairing not given here; also: displayed on bacteriophage as fusion to pIII
# B19: Phage-2361 (peptide)
# peptide: ITPWCIPPWMCPGP
# notes: as for B11
# B20: Phage-2194 (peptide)
# peptide: HAMWCIPAWMCENL
# notes: as for B1
# B21: Phage-2196 (peptide)
# peptide: LADWCRPVWMCEGF
# notes: as for B1
# B22: Phage-2205 (peptide)
# peptide: VDRLCTPEWMCSGF
# notes: as for B1
# B23: Phage-2362 (peptide)
# peptide: EEKMCKPSWMCQLF
# notes: as for B11
# B24: Phage-2366 (peptide)
# peptide: INKWCIPEWMCAAM
# notes: as for B11
# B25: Phage-2365 (peptide)
# peptide: AEKLCKPAWMCNNM
# notes: as for B11
# Legend:
# [1] = molecular target: T1, Anti-PSMA Fab (SEQ ID NOs: 19, 20); experiment: phage binding ELISA on captured Fab; competitor PSMA antigen pre-incubated in the wells
# T1 construct: Biotinylated and captured on neutravidin coated plates in the phage ELISA; also called 006 PSMA Fab
# Description: (§1) Clonal phage were harvested as crude supernatants and screened via standard ELISAs. […] Prior to the addition of clonal phage. wells were incubated with blocking buffer and PSMA antigen or blocking buffer alone. Without washing or aspirating, clonal phage supernatants were then added to the wells and incubated for a short time. Wells were then washed followed by detection of bound phage using a horse radish conjugated anti-M13 antibody.
# [2] = molecular target: T1, Anti-PSMA Fab (SEQ ID NOs: 19, 20); experiment: phage binding ELISA; biotinylated Fab on neutravidin plate, anti-M13 HRP detection
# Description: as §1
# [3] = molecular target: T2, Anti-PSMA Fab (SEQ ID NOs: 19, 20); experiment: phage binding ELISA; biotinylated PSMA Fab on neutravidin plate, clonal phage supernatant, anti-M13 HRP detection;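 further: wells were preincubated with blocking buffer either containing PSMA antigen or without it before crude phage supernatant was added, briefly incubated, then washed prior to detection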
# T2 construct: Biotinylated and captured on neutravidin-coated plates in the phage ELISA; also called 006 PSMA Fab
# Description: as §1
# [4] = molecular target: T2, Anti-PSMA Fab (SEQ ID NOs: 19, 20); experiment: phage binding ELISA; PSMA Fab on plate pre-incubated with PSMA antigen as competitor, anti-M13 HRP detection;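 further: crude clonal phage supernatants added without washing to wells preincubated with PSMA in blocking buffer, compared with wells receiving blocking buffer only, then bound phage detected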
# Description: as §1
# [5] = molecular target: T3, PSMA Fab; experiment: phage ELISA; biotinylated PSMA Fab on neutravidin plate pre-incubated with PSMA antigen as competitor, anti-M13 HRP detection;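 further: crude clonal phage supernatants tested, compared against control wells pre-incubated with blocking buffer only, without PSMA antigen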
# T3 construct: also called Anti-PSMA Fab; 006 PSMA Fab
# Description: as §1
# [6] = molecular target: T3, PSMA Fab; experiment: phage ELISA; biotinylated PSMA Fab on neutravidin plate, clonal phage supernatant, anti-M13 HRP detection, blocking buffer alone
# Description: as §1
# [7] = molecular target: T4, Anti-PSMA Fab (SEQ ID NOs: 19, 20); experiment: phage binding ELISA; clonal phage on biotinylated anti-PSMA Fab captured on neutravidin, anti-M13 HRP detection
# T4 construct: In the phage ELISA the Fab was biotinylated and captured on neutravidin coated plates; also called 006 PSMA Fab
# Description: as §1
# [8] = molecular target: T4, Anti-PSMA Fab (SEQ ID NOs: 19, 20); experiment: phage binding ELISA on captured anti-PSMA Fab; competitor: PSMA antigen
# Description: as §1
Binder,Anti-PSMA Fab signal in the presence of PSMA [1],"Anti-PSMA Fab (SEQ ID NOs: 19, 20) signal [2]","Anti-PSMA Fab (SEQ ID NOs: 19, 20) signal [3]",Anti-PSMA Fab signal in the presence of PSMA [4],also measured
B1,0.0815,1.61,,,
LENWCKPAWMCWGM [Phage-2248 peptide (SEQ ID NO: 2564)],,,1.55,0.0811,
B2,,,1.55,0.061,
DFKWCIPTWMCEVY [Phage-2238 peptide (SEQ ID NO: 2554)],,,1.56,0.0768,
B3,0.075,1.62,,,
B4,0.0617,1.62,,,
B5,0.0642,1.62,,,
B6,0.0549,1.62,,,
B7,0.0973,1.63,,,
B8,0.0702,1.62,,,
B9,0.072,1.61,,,
HPNWCTPPWMCLGL [Phage-2239 peptide (SEQ ID NO: 2555)],,,1.56,0.0699,
LMKWCIPQWMCQLD [Phage-2243 peptide (SEQ ID NO: 2559)],,,1.56,0.249,
B10,0.0743,1.62,,,
NIIRCTPAWMCDGF [Phage-2247 peptide (SEQ ID NO: 2563)],,,1.55,0.0619,
B11,,,,,"Phage binding ELISA signal, Anti-PSMA Fab in the presence of PSMA antigen [5]: 0.0567; Phage binding ELISA signal, Anti-PSMA Fab [6]: 1.41"
ADKWCIPEWMCQQD [Phage-2252 peptide (SEQ ID NO: 2568)],,,1.55,0.0665,
B12,,,,,"Phage binding ELISA signal, Anti-PSMA Fab in the presence of PSMA antigen [5]: 0.0789; Phage binding ELISA signal, Anti-PSMA Fab [6]: 1.41"
LMNWCIPPWMCSAQ [Phage-2242 peptide (SEQ ID NO: 2558)],,,1.56,0.0907,
MDKWCTPPWMCDWL [Phage-1829],,,,,"Anti-PSMA Fab (SEQ ID NOs: 19, 20) signal [7]: 2.3; Anti-PSMA Fab signal in the presence of PSMA [8]: 0.136"

Binder,Anti-PSMA Fab signal in the presence of PSMA [1],"Anti-PSMA Fab (SEQ ID NOs: 19, 20) signal [2]","Anti-PSMA Fab (SEQ ID NOs: 19, 20) signal [3]",Anti-PSMA Fab signal in the presence of PSMA [4],also measured
LVKLCIPEWMCSEG [Phage-2244 peptide (SEQ ID NO: 2560)],,,1.56,0.0711,
GEIWCTPKWMCDGF [Phage-2246 peptide (SEQ ID NO: 2562)],,,1.55,0.0716,
B13,0.0637,1.62,,,
B14,,,,,"Phage binding ELISA signal, Anti-PSMA Fab in the presence of PSMA antigen [5]: 0.0747; Phage binding ELISA signal, Anti-PSMA Fab [6]: 1.41"
B15,,,,,"Phage binding ELISA signal, Anti-PSMA Fab in the presence of PSMA antigen [5]: 0.0625; Phage binding ELISA signal, Anti-PSMA Fab [6]: 1.42"
B16,0.0994,1.63,,,
B17,,,,,"Phage binding ELISA signal, Anti-PSMA Fab in the presence of PSMA antigen [5]: 0.0888; Phage binding ELISA signal, Anti-PSMA Fab [6]: 1.42"
B18,,,1.56,0.0686,
B19,,,,,"Phage binding ELISA signal, Anti-PSMA Fab in the presence of PSMA antigen [5]: 0.0746; Phage binding ELISA signal, Anti-PSMA Fab [6]: 1.42"
B20,0.0809,1.63,,,
EPKWCTPAWMCEWM [Phage-1830],,,,,"Anti-PSMA Fab (SEQ ID NOs: 19, 20) signal [7]: 2.29; Anti-PSMA Fab signal in the presence of PSMA [8]: 0.0904"
VVKWCIPTWMCENS [Phage-2241 peptide (SEQ ID NO: 2557)],,,1.56,0.0889,
B21,0.287,1.62,,,
B22,0.0763,1.61,,,
IIKWCTPEWMCVGF [Phage-2249 peptide (SEQ ID NO: 2565)],,,1.55,0.0748,
IDKWCIPAWMCEST [Phage-2250 peptide (SEQ ID NO: 2566)],,,1.55,0.105,
B23,,,,,"Phage binding ELISA signal, Anti-PSMA Fab in the presence of PSMA antigen [5]: 0.09; Phage binding ELISA signal, Anti-PSMA Fab [6]: 1.41"
B24,,,,,"Phage binding ELISA signal, Anti-PSMA Fab in the presence of PSMA antigen [5]: 0.0668; Phage binding ELISA signal, Anti-PSMA Fab [6]: 1.41"
B25,,,,,"Phage binding ELISA signal, Anti-PSMA Fab in the presence of PSMA antigen [5]: 0.0752; Phage binding ELISA signal, Anti-PSMA Fab [6]: 1.41"
